Experiment: soluble on expression in E. coli; label from the status in PepcDB or PDB records
With “MSLGIGHPMWVGWCIIIAMRSIPASVESSVLRWARESCGLTEVAAARKLGLPDDRVAAWEVGEVVPTIAQLRKAAEVYKRSLAVFFLSEPPEGFDTLRDFRRLDGAASGQWTPGLHEEFRRAHTQRDFALELADAEDREIPGAWRLPLSGDEADADIAARIRKALIEVSPLPIPVASVDPYEHLNAWVSAIETSGVLVLATRGGKVAIDEMRGMCLYFDELPVIVLNGSDHPRPRLFSLLHEFVHVVLHTEGLCDVIADAHPSTQDRSLEARCNAIAAAVLMPADVVRARPEVIVRSETPSSWDYESLRPVAAHFGVSAEAFLRRLSTLGIVPVEVYRQRRAEFIAAHEDEAEGHHHHHH” the “soluble on expression in E. coli” value was “soluble”.
In the case of “MSLGLGSSNRQTDDWNAKLYDERHRFVSAYGEDLIQWLAPKEGECVLDLGCGTGDLTEQIHQLGSRVIGVDVSESMIEQAKGKFPHLDFQVAEATDLSFSEKFDAIFSNAVLHWIKDAEEALTVIYRSLKPGGRFVAEFGGKGNVETIVNTLADTMSQADSRWSKEELPWFFPSIGQYTSLMEQVGFRVTHALHFNRPTLLEDGDGIRHWLAMFAESVLEGKSETERAEIVRFVEAEVKDALFDGTNWWADYKRIRVVGMKQEGHHHHHH”, the “soluble on expression in E. coli” value is reported as “not soluble”.
In the case of “MSLGNGVGTCDLPPQFAYFFQFSHLSATRNLLCLDLDETLVCSKQRTPQTRETEDFYVVVEQRGKRYEFSVIKRPGLDVFLVSMAELYDLAIFTYAIKEYGDKIVNIIDPNRLIKYRMYRQHCVKYLVDKRHVIVKDLSRVGKPHSSILLIDNSASTGIWQRNNFLLVPSFYGDERDKVLYELKELLEGISKCKDFYTEIQSLRSVEGHHHHHH”, the “soluble on expression in E. coli” value is reported as “soluble”.
For “MSLGNKRVLITGATGFIGGYLVDEALRRQYEVWAAVRPHSDRSRLTDSRIRFVEIDYRDPSDIARLADKIAPEGESAWHLVIHNAGITKARDTSLFREINAEQTKRFLIGLQGAKHCPERFVLMSSMGSYGAPPDDCQPLSSSSVPKPTTAYGESKLLAEQYVQTFVTIPYTIIQPTGVYGPHDQDYLMAIRSVDKGFDFSTGNTPQTLTFIYAEDLASAVFIAAEHPDAAGQKYIVSDGKEYTDIEFGRMIQHLLDRKNVCHLRIPLPLVKATCYIGQKWADISGTLTPLNLDKYAIIAQRNWRCDSSPIRAIGFSPRYNLEQGLAETIRWARTTGQIREGHHHHHH”, the “soluble on expression in E. coli” value was “soluble”.
In the case of “MSLGNTGVASADYLTAPFYNPALVASFEEHDDFGLLLPAIGVNVRDSDESLATIDDLQDSIDEFEAAPIPSPGQIDQLNRYLDDLQGNAPLTASSSLGLAVAIPTKRFSTNLFARGYLELIARPNIADYLSTGPGNEVADTKKRYEDSSVTMAAFGYVEYGAALAKEFEIKEQRISFGVTPKIQQLTTYYVVPTVADFELDDYEESEHKESAFNLDFGVVWLKDKFQVALAVKDLLSQEIDLKDKNGQKQDVYELNTQVSAGVAYRSDFFTAAMDLDLTKQERFKSLDDETQFVRFGVEGNAWGWAQLRAGYEIDLEDTVENAFTAGIGISPFDVVSLDIAGSYAGENQFGVSGNLAFTFEGHHHHHH”, the “soluble on expression in E. coli” value is reported as “not soluble”.
With “MSLGNVGHLITPAIPLDYGELLAAPVTSSESMAQLRGRWIVLSVADGPCAEVCRQNLYKTRQMRLMLNKEIPRVRRLLLLTDPGAADALADWLRQDEFLAVAGLAPTLREKLEKAVGGPLQPGQILLLDPLGNLMMYYDADFDPYGVLKDLKHLLRASQIGEGHHHHHH” the “soluble on expression in E. coli” value was “soluble”.
With “MSLGSDIPTLRAALARSDAWLVACFCAAWCDTCQQYRPKLLELARARPGHTFAWIDIEDHPDLLGEEDVENFPTLLVQAHGKVLFYGPMLPHIGHLERLLDSLDPQGREGHHHHHH” the “soluble on expression in E. coli” value was “soluble”.
In the case of “MSLGSLVIKKSIIAALVVALGIAGQSVQAESVPDETLQSEKVQTEKVQAEKTETDLFSPVEQIMNPFYPKYPPTKPATGEQAELIKRGEYLAKMGDCIACHTDVEGGTPAYAGGLPINTPFGLFYSPNITPDKETGIGNWTEKDFIRALKDGRDPKGRNYFPVFPYVYFSKITDDDARALYAYFMSIPPVKLKNKSLPFPFGVPGARFALWGWNLLFFFPQENSIEYDPDKSPEWNRGRYIVDTLGHCSMCHTPMNIFGSAKNRYYLTGSFIDGYWAPNITKYGLESASHQEVADVFKAGELINKAGPVAGPMAEVNHNSLSHLTEEDRLAIATYLKTVESEEYLGVSPSDLPPSVARGRQVYLKACLICHKDNKMGAPVIGDSASWYTRLKNSGLTGLYRHAIYGYNQMPVKGACVTCSDNDIISAVDYLLNASLTRSQWQDLASGGVKKYPASGKAVYNENCAVCHNEGKLGAPKIGDKVTWKPLIAQNMDVLIENTIRGKNHLPNGGCNHCSTDEVIEAIKYMVSQSKTEGNYSLWEGHHHHHH”, the “soluble on expression in E. coli” value is reported as “not soluble”.

— the DeepSol protein solubility set
